Results on two substances are retold here after patent US20250297019A1.

By Kd is commonly meant the constant that tells how readily two partners part at equilibrium.

In assay [1] the target is human CCR8 (human) (UniProt P51685). Briefly: cell-based or functional assay.
Assay [2] addresses cynomolgus monkey CCR8 (cynomolgus monkey). Briefly: assay not described ('in vitro assays').
For assay [3], the target named is human CCR8 (human) (UniProt P51685). Briefly: assay not described ('in vitro assays').

Sequence of cynomolgus monkey CCR8 (cynomolgus monkey) (O97665 other isoform, or with tags, fused parts or gaps): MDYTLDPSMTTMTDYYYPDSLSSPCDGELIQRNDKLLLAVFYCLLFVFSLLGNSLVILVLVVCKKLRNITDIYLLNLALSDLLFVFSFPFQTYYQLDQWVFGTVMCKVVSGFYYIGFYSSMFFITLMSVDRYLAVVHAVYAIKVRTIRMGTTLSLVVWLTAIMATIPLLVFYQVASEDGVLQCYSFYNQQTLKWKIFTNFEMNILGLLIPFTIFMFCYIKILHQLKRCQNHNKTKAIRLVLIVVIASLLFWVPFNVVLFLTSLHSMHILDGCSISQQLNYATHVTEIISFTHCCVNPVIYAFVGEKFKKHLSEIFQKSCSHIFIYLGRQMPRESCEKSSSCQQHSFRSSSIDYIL

Regarding RO7502175 (antibody), the ADCC geometric mean EC50 (calcein release; PBMC effector cells of 8 donors, hCCR8.GNA15 CHO target cells) with human CCR8 (human) [1] was 3 ng/mL. In addition, the figures for the Kd (in assay [2]; with human CCR8 (human) [3]) were 27 µM and 32 µM, respectively.
For the substance “murine anti-human CCR8 mAb L263G8 (Biolegend) (antibody)”, in the assay with human CCR8 (human) [1], the IC50 of CCL1 blocking (Ca2+ influx, CHO/hCCR8.Gna15 cells) turned out to be 0.0236 µM; the induction fold at plateau (about 40 nM antibody), mFcgRIV Jurkat reporter with CHO/hCCR8 worked out at 11 fold; the induction fold, mFcgRIV Jurkat NFAT-luciferase reporter with CHO/hCCR8, at about 1 nM antibody is > 10 .fold.
